Laboratory results reported in paper PMC9057599.

Target: histone H4 N-terminus, 1-30 (UniProt P62805)
Assay: biotin-peptide pulldown, blot
Conditions: reference: wild type ZMYND8; sites S486,S490

binding against the reference: stronger
Substance: ZMYND8 (from UniProt Q9ULU4) 2SA (S486A/S490A)
